Laboratory results reported in the supplement of paper PMC10567573.

B1: KRT18 (parent)
chain: KSQDLAKIMADIRAQYDELARKNR
B2: SCARA5 (parent)
chain: VTEDLRLKDWEHSIALRNISLAKG

Variants of: B1
Test: protein stability index of a GFP-peptide fusion (GPS, HEK-293T) (PSI 1-6); higher = more stable
Settings: c terminus: a fixed tail appended
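Note: lentivirally expressed fusions sorted by FACS into six bins by GFP to DsRed ratio, PSI derived from sequencing read proportions per bin multiplied by bin number.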

Variant	protein stability index
N23I	2.58
N23W	2.33
N23K	2.87
N23S	3.29
N23R	2.5
D11W	1.88
D11N	2.84
D11M	2.02
D11I	1.88
D11R	2.85
D11K	1.8
L5E	3.94
L5K	3.75
L5I	2.38
L5P	3.59
L5Q	4.06
L5N	4.26
M9K	3.8
M9I	2.03
M9F	2.77
M9R	3.8
E18Y	3.24
E18R	2.39
E18C	2.45
E18A	2.59
I8N	3.86

Variant	protein stability index
I12Q	4.41
I12G	4.45
S2C	2.14
S2R	2.56
S2G	2.59
S2P	2.43
K1W	2.28
K1V	2.71
K1R	2.62
K1T	2.58
A20C	2.38
A20W	1.67
A20I	2.47
Y16V	3.58
Y16D	4.38
Y16C	3.82
R24E	3.17
R24Q	2.95
R24Y	2.01
Q15T	2.24
Q15R	2.6
Q15I	1.96
Q15Y	2.16
A6F	2.17
A6M	2.33
A6R	2.54

Variant	protein stability index
A6I	2.01
A6W	1.98
A6E	2.78
A6P	3.61
R21A	3.1
Q3W	1.71
Q3H	2.13
R13E	3.75
R13C	2.06
R13A	2.47
A14Q	2.14
A10P	4.14
A10V	3.23
A10M	2.3
A10W	2.54
K7P	3.88
L19Q	3.59
L19F	2.46
D4T	1.76
D4H	3.03
K22P	2.85
K22H	3.1
K22C	2.32
D17R	2.61
D17Q	2.13

Variants of: B2
Test: as above
Settings: c terminus: a fixed tail appended

Variant	protein stability index
S20H	3.04
S20L	3.37
S20C	3.21
S20Y	2.56
S20G	3.66
S20F	3.17
S20A	3.81
S20W	3.15
S20K	2.94
S20N	3.54
S20T	2.86
S20Q	3.54
S20I	2.15
S20V	3.56
S20D	3.67
S20E	2.36
S20M	3.24
S20R	3.23
S20P	3.91
K23T	2.85
K23Y	1.64
K23C	3.1
K23M	2.16
K23G	3.14

Variant	protein stability index
K23R	2.96
K23F	2.35
K23L	2.95
K23A	3.04
K23W	2.22
K23D	3.84
K23V	2.29
K23N	3.48
K23H	3.29
K23E	3.93
K23Q	3.09
K23S	3.3
K23I	2.36
K23P	3.44
H12Q	3.43
H12L	2.38
H12Y	2.76
H12V	2.44
H12M	2.77
H12D	3.75
H12C	2.62
H12E	3.84
H12K	3.61
H12S	3.88

Variant	protein stability index
H12T	3.51
H12G	3.63
H12N	3.7
H12F	2.28
H12I	2.4
H12W	2.25
H12P	3.29
H12R	3.51
H12A	3.2
I19C	4.27
I19T	3.93
I19F	3
I19Y	3.22
I19L	3.05
I19K	4.39
I19R	4.25
I19W	2.62
I19M	3.3
I19P	3.9
I19V	3.74
I19N	3.77
I19G	3.99
I19D	4.54
I19Q	4.44

Variant	protein stability index
I19A	3.71
I19S	3.98
I19H	3.69
I19E	4.44
S13K	3.23
S13V	3.37
S13G	3.01
S13C	3.08
S13Q	3.68
S13F	2.64
S13R	3.4
S13H	3.1
S13L	2.93
S13I	2.85
S13D	3.65
S13Y	2.88
S13E	3.58
S13A	3.37
S13N	2.93
S13M	2.81
S13W	2.57
S13P	3.25
S13T	3.41
G24I	2.42

Variant	protein stability index
G24P	3.09
G24W	2.39
G24K	3.65
G24Q	3.49
G24T	3.43
G24E	4.13
G24R	3.46
G24C	2.83
G24D	4.08
G24F	2.49
G24L	2.04
G24H	3.3
G24N	3.06
G24A	3.4
G24S	3.31
G24V	2.26
G24M	2.95
G24Y	3.14
N18K	3.5
N18P	2.81
N18W	2.47
N18H	2.96
N18M	1.81
N18A	2.25

Variant	protein stability index
N18Y	1.95
N18I	2.47
N18T	3.58
N18F	1.86
N18Q	2.93
N18C	2.17
N18L	1.35
N18D	3.81
N18E	3.68
N18V	1.76
N18S	3.37
N18R	3.15
N18G	3.6
A15D	4.2
A15L	2.63
A15P	3.54
A15S	3.66
A15N	3.42
A15F	2.86
A15C	3.13
A15V	2.34
A15Q	3.59
A15R	2.74
A15Y	2.39

Variant	protein stability index
A15W	2.46
A15E	3.14
A15K	2.98
A15I	2.59
A15M	3.27
A15H	3.37
A15T	3.64
A15G	3.58
L16S	4.21
L16A	3.71
L16N	4.12
L16T	3.81
L16G	4
L16E	3.73
L16H	3.45
L16C	3.37
L16I	3.42
L16Y	3.14
L16K	3.77
L16P	4.52
L16Q	4.06
L16W	2.91
L16F	3.1
L16R	3.4

Variant	protein stability index
L16D	4.32
L16V	3.98
L16M	3.45
R17S	3.77
R17M	2.56
R17W	2.26
R17H	3.41
R17L	1.8
R17K	3.38
R17N	3.53
R17F	2.49
R17Q	3.21
R17A	3.5
R17T	3.19
R17E	4.06
R17Y	2.58
R17G	3.62
R17V	1.56
R17D	3.94
R17I	2.07
R17C	2.84
R17P	3.56
E11N	3.56
E11Y	2.57

Variant	protein stability index
E11Q	3.16
E11M	2.46
E11W	2.55
E11R	2.91
E11S	2.98
E11V	1.8
E11T	2.75
E11P	2.92
I14L	3.3
I14P	4.76
I14T	3.59
I14G	4.17
I14E	4.03
I14S	4.22
I14N	3.96
I14R	3.64
I14W	3.29
I14D	4.26
I14V	3.75
I14C	3.26
I14Y	3.37
I14A	4.04
I14F	3.21
I14Q	3.91

Variant	protein stability index
I14H	3.47
I14M	3.4
I14K	3.86
L21H	4.07
L21R	3.56
L21I	3.19
L21W	3.08
L21G	4.03
L21N	4.08
L21S	3.85
L21K	4.37
L21Q	3.65
L21V	3.5
L21A	4.15
L21E	4.4
L21Y	3.48
L21T	4.23
L21F	3.48
L21M	3.68
L21P	4.11
L21D	4.8
L21C	3.84
A22M	2.82
A22V	3.23

Variant	protein stability index
A22L	2.67
A22K	3.95
A22Y	2.23
A22F	3.06
A22P	3.77
A22E	3.69
A22C	3.37
A22H	3.9
A22T	2.97
A22I	3.37
A22G	3.14
A22Q	3.51
A22W	2.16
A22S	3.24
A22D	3.73
A22N	3.61
A22R	3.33
